# Data from paper PMC11143218, “Evolved histone tail regulates 53BP1 recruitment at damaged chromatin” (Nature Communications, 2024).
# Non-standard residues stand in square brackets, D forms with d. No end group written: not given here. *: point of attachment. Biotin = O=C1N[C@H]2[C@H](CS[C@H]2CCCCC(=O)*)N1; pS = N[C@@H](COP(=O)(O)O)C(=O)O
# B1: biotinylated phosphorylated S139 H2AX C-terminal tail peptide (peptide)
# peptide: Biotin-TSATVGPKAPSGGKKATQA[pS]QEY
# notes: also called 23-amino acid phosphorylated H2AX C-terminal tail peptide; γH2AX C-terminal tail; source: synthetic peptide, bought: genscript
# Target: T1, MBP-53BP1 IRIF formation fragment a.a. 1220–1639 (human, UniProt Q12888 1220-1639)
# T1 construct: 53BP1, minimal region for IRIF formation, a.a; also called in vitro purified 53BP1 a.a; source: E. coli BL21, purified (amylose resin, maltose elution)
# Test: pull-down; in vitro: MBP-purified protein incubated with 10.5 μg biotinylated peptide and 10 μL streptavidin beads, 1 h at 4 °C; washed three times with NETN; western blot
# Details: both partners purified
# T1 sequence (Q12888 1220-1639): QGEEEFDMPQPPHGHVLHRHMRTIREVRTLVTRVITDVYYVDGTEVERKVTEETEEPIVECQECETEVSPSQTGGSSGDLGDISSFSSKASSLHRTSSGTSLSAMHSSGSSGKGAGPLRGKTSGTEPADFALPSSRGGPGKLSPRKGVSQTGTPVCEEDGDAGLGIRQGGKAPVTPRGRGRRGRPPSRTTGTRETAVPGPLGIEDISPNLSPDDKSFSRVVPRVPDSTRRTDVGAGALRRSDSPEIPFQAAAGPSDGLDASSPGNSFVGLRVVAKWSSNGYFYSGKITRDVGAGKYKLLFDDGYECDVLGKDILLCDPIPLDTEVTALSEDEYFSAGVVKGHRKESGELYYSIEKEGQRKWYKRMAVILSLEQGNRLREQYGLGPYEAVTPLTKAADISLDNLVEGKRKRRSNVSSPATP
binder,measurement,value
B1,binding result,binds
